From US20110313018

B1: recombinant Aurora kinase A (SignalChem) (protein)
chain: MDRSKENCISGPVKATAPVGGPKRVLVTQQFPCQNPLPVNSGQAQRVLCPSNSSQRIPLQAQKLVSSHKPVQNQKQKQLQATSVPHPVSRPLNNTQKSKQPLPSAPENNPEEELASKQKNEESKKRQWALEDFEIGRPLGKGKFGNVYLAREKQSKFILALKVLFKAQLEKAGVEHQLRREVEIQSHLRHPNILRLYGYFHDATRVYLILEYAPLGTVYRELQKLSKFDEQRTATYITELANALSYCHSKRVIHRDIKPENLLLGSAGELKIADFGWSVHAPSSRRTTLCGTLDYLPPEMIEGRMHDEKVDLWSLGVLCYEFLVGKPPFEANTYQETYKRISRVEFTFPDFVTEGARDLISRLLKHNPSQRPMLREVLEHPWITANSSKPSNCQNKESASKQS
B2: recombinant full-length PBK/TOPK (Invitrogen) (protein)
chain: MEGISNFKTPSKLSEKKKSVLCSTPTINIPASPIMQKLGFGTGVNVYLMKRSPRGLSHSPWAVKKINPICNDHYRSVYQKRLMDEAKILKSLHHPNIVGYRAFTEASDGSLCLAMEYGGEKSLNDLIEERYKASQDPFPAAIILKVALNMARGLKYLHQEKKLLHGDIKSSNVVIKGDFETIKICDVGVSLPLDENMTVTDPEACYIGTEPWKPKEAVEENGVITDKADIFAFGLTLWEMMTLSIPHINLSNDDDDEDKTFDESDFDDEAYYAALGTRPPINMEELDESYQKVIELFSVCTNEDPKDRPSAAHIVEALETDV
B3: recombinant Aurora kinase B (SignalChem) (protein)
chain: MAQKENSYPWPYGRQTAPSGLSTLPQRVLRKEPVTPSALVLMSRSNVQPTAAPGQKVMENSSGTPDILTRHFTIDDFEIGRPLGKGKFGNVYLAREKKSHFIVALKVLFKSQIEKEGVEHQLRREIEIQAHLHHPNILRLYNYFYDRRRIYLILEYAPRGELYKELQKSCTFDEQRTATIMEELADALMYCHGKKVIHRDIKPENLLLGLKGELKIADFGWSVHAPSLRRKTMCGTLDYLPPEMIEGRMHNEKVDLWCIGVLCYELLVGNPPFESASHNETYRRIVKVDLKFPASVPMGAQDLISKLLRHNPSERLPLAQVSAHPWVRANSRRVLPPSALQSVA

Experiments:
[1] = biological target: T1, GST-LGN/GPSM2 wild type, full-length recombinant (pGEX 6P-2-LGN/GPSM2, E. coli)
T1 chain: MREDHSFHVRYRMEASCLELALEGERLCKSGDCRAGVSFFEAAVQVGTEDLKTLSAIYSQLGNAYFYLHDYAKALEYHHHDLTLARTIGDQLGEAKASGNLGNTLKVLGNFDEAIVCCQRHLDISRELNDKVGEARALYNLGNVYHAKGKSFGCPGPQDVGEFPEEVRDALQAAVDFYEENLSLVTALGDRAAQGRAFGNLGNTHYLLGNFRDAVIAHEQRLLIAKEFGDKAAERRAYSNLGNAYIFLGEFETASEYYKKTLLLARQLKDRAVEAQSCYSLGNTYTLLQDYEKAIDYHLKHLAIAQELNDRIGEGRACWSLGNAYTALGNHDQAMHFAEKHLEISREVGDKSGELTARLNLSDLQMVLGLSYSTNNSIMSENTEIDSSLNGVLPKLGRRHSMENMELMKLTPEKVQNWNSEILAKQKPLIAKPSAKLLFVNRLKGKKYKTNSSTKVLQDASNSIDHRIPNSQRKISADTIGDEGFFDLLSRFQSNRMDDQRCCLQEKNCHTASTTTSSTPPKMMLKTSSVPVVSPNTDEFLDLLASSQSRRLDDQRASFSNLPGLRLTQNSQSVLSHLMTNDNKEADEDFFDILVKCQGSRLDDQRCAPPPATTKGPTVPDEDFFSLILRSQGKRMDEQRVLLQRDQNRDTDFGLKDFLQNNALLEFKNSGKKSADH

[2] = biological target: GST-LGN/GPSM2 S401A
[3] = biological target: T2, His-tagged full-length recombinant LGN/GPSM2 (pET28a-LGN/GPSM2, E. coli)
T2 chain: T1 chain

Protein	in vitro kinase assay (autoradiography, [gamma-32P]-ATP) [1]	in vitro kinase assay (autoradiography, [gamma-32P]-ATP) [2]	in vitro kinase assay with GST-LGN/GPSM2 WT and alanine substitutes (autoradiography) [1]	in vitro kinase assay (western blot with anti-phosphorylated threonine antibody) [3]
B1	the phosphorylation of GST-LGN/GPSM2 by both Aurora kinase A and B	Substitution of serine 401 to alanine distinguished the phosphorylation of GST-LGN/GPSM2 by both Aurora kinase A and B		
B2	The autoradiography images also showed phosphorylation of the LGN/GPSM2 protein by PBK/TOPK (FIG. 8C)		PBK/TOPK, which was has been shown to phosphorylate LGN/GPSM2 in FIG. 8, did not phosphorylate these amino acids identified here (FIG. 10C)	found phosphorylation of the LGN/GPSM2 protein by PBK/TOPK in vitro (FIG. 8B)
B3	the phosphorylation of GST-LGN/GPSM2 by both Aurora kinase A and B	Substitution of serine 401 to alanine distinguished the phosphorylation of GST-LGN/GPSM2 by both Aurora kinase A and B		
